# In patent publication CN107987163A (HANGZHOU SHANGJIAN BIOTECHNOLOGY CO LTD, dated 2018):
# B1: 9A抗体 (full antibody 9A, anti-AXL monoclonal antibody) (antibody, human IgG1, kappa, V domains shown)
# VH: QVQLVQSGAEVKKPGSSVKVSCKASGGTFSSYAISWVRQAPGQGLEWMGGIIPIFGTANYAQKFQGRATITADESTSTAYMELSSLRSEDTAVYYCARAYYDFWSGYEPWGQGTLVTVSS
# VL: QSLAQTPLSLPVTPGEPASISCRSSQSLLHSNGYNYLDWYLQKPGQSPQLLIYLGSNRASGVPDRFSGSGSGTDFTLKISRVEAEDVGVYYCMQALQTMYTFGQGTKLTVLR
# notes: also called 单克隆抗体9A; 全抗体
# Key:
# [1] = target: BSA (BOVOGEN) (UniProt P02769 25-607); test: ELISA, protein coated at 1μg/ml, goat anti-human IgG-HRP detection
# BSA (BOVOGEN), sequence (P02769 25-607 limits assumed): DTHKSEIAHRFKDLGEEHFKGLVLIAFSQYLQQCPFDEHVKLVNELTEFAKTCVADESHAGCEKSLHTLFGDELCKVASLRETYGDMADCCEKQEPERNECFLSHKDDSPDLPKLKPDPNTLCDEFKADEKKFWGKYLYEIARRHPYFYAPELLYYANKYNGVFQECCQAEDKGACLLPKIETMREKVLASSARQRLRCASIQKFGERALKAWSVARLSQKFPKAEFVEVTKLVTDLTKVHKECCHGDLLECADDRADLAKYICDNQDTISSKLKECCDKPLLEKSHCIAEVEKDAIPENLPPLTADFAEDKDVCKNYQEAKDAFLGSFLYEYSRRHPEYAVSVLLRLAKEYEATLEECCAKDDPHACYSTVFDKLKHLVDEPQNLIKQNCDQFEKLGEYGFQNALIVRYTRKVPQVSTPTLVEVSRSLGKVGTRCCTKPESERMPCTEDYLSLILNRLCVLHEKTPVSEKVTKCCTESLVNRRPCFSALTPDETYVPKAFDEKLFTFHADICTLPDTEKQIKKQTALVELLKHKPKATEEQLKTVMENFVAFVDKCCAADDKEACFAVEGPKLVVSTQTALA
# [2] = target: T1, A549细胞表面AXL (AXL on the surface of A549 cells) (UniProt P30530 26-894, limits assumed); test: flow cytometry on A549 cells, 9A diluted to 20μg/ml, PE mouse anti-human IgG detection
# T1 construct: whole, on cells; also called 细胞表面抗原
# T1 sequence (looked up): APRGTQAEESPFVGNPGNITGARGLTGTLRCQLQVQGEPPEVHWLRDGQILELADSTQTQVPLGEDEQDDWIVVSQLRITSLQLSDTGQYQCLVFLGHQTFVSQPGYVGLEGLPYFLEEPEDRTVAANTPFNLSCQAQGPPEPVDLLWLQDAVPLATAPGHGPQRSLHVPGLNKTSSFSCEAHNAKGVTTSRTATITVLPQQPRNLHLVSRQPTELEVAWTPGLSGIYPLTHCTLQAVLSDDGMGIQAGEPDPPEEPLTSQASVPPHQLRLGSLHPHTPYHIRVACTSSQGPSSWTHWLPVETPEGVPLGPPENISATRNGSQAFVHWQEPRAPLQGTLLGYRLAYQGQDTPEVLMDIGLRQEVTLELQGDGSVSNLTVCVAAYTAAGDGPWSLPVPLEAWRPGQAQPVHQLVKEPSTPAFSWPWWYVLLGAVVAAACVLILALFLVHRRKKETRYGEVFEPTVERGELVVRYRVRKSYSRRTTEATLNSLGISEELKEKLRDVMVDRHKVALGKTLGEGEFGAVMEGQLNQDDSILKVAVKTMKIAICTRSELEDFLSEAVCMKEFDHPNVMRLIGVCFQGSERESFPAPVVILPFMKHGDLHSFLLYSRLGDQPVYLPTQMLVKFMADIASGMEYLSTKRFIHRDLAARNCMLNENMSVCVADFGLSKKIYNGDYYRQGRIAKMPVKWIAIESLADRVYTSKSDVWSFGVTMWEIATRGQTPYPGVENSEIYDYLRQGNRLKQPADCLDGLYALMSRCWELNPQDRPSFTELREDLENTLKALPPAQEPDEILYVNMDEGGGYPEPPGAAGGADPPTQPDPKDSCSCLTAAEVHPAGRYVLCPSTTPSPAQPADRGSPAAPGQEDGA
# [3] = target: T2, AXL-Fc (人AXL蛋白胞外段-人IgG1Fc段融合蛋白) (human, UniProt P30530 26-451); test: ELISA, AXL-Fc coated at 1μg/ml, antibody titrated, goat anti-human IgG (Fab')2-HRP detection
# T2 construct: extracellular domain; Expressed in CHO-K1 cells; also called 靶抗原AXL-Fc; 抗原AXL-Fc
# T2 sequence (looked up): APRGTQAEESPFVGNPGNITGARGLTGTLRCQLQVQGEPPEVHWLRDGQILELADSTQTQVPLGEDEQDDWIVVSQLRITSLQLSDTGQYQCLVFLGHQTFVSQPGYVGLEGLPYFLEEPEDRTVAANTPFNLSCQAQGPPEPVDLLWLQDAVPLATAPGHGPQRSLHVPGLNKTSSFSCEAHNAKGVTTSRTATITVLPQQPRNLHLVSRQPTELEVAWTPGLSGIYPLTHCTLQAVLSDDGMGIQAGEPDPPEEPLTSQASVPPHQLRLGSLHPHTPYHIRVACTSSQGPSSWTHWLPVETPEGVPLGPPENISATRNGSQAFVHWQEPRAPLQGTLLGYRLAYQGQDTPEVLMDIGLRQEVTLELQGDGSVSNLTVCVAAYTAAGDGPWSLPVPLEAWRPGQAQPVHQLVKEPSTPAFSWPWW
binder,measurement,setting,value
B1,binding result,[1],no binding
same,binding result,[2],binds
same,binding result,[3],binds
